One test addresses T1, HAUS5 (human, UniProt O94927 1-633).
T1 construct: HAUS5, human; 633; also called H5; source: High5 insect cells, co-infected with baculoviruses; purified as part of the augmin octamer (StrepII-Trap, Superose 6)
T1 sequence (looked up): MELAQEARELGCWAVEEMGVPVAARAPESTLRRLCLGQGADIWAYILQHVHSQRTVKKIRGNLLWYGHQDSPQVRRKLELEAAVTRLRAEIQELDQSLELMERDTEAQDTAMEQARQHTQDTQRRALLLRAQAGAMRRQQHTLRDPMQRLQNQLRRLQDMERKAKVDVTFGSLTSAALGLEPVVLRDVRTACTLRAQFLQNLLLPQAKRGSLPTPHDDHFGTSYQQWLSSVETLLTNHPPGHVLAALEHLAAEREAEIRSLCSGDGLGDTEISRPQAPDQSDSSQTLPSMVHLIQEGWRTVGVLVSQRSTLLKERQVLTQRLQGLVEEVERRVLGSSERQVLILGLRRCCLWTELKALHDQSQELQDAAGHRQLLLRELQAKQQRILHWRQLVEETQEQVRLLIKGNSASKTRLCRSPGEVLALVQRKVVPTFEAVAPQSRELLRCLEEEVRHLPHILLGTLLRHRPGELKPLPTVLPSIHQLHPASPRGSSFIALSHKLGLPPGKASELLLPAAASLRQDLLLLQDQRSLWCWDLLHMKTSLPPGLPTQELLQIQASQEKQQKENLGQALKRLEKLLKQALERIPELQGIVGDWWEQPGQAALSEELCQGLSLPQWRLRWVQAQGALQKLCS
The experiment in a line: cross-linking; purified augmin^ΔH6C with DSSO at 250:1, 500:1, 750:1 and 1000:1 molar ratio, 1 h on ice; trypsin in gel or in solution, LC-MS/MS, MetaMorpheus, 1% FDR. The following applies: both partners purified.

The target in test [1] is T2, HAUS6 N-terminal region (a.a. 1–432) (human, UniProt Q7Z4H7 1-432).
T2 construct: HAUS6, human, N-terminal region a.a; 1-432 (C-terminal region H6C, a.a. 433-955, deleted); also called H6N; H6 in augmin^ΔH6C; source: High5 insect cells, co-infected with baculoviruses; purified as part of the augmin^ΔH6C octamer (StrepII-Trap, Superose 6)
T2 sequence (looked up): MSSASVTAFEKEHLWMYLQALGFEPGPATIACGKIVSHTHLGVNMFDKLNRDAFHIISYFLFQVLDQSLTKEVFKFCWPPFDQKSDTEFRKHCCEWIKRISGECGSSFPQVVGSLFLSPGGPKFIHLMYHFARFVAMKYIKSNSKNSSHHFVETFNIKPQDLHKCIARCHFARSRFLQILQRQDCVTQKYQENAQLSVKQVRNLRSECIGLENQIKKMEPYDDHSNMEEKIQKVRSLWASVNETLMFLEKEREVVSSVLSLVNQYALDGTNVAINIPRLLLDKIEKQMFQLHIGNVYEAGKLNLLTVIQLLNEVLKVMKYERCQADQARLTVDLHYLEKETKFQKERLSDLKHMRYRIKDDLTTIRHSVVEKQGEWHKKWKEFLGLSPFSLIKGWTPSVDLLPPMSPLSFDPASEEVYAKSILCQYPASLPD
The test is described as above. The conditions noted are these: both partners purified.

B1: HAUS3 (natural protein, human, UniProt Q68CZ6 1-603, looked up)
chain: MSCGNEFVETLKKIGYPKADNLNGEDFDWLFEGVEDESFLKWFCGNVNEQNVLSERELEAFSILQKSGKPILEGAALDEALKTCKTSDLKTPRLDDKELEKLEDEVQTLLKLKNLKIQRRNKCQLMASVTSHKSLRLNAKEEEATKKLKQSQGILNAMITKISNELQALTDEVTQLMMFFRHSNLGQGTNPLVFLSQFSLEKYLSQEEQSTAALTLYTKKQFFQGIHEVVESSNEDNFQLLDIQTPSICDNQEILEERRLEMARLQLAYICAQHQLIHLKASNSSMKSSIKWAEESLHSLTSKAVDKENLDAKISSLTSEIMKLEKEVTQIKDRSLPAVVRENAQLLNMPVVKGDFDLQIAKQDYYTARQELVLNQLIKQKASFELLQLSYEIELRKHRDIYRQLENLVQELSQSNMMLYKQLEMLTDPSVSQQINPRNTIDTKDYSTHRLYQVLEGENKKKELFLTHGNLEEVAEKLKQNISLVQDQLAVSAQEHSFFLSKRNKDVDMLCDTLYQGGNQLLLSDQELTEQFHKVESQLNKLNHLLTDILADVKTKRKTLANNKLHQMEREFYVYFLKDEDYLKDIVENLETQSKIKAVSLED
notes: HAUS3, human; 603; also called H3; source: High5 insect cells, co-infected with baculoviruses; purified as part of the augmin octamer (StrepII-Trap, Superose 6)
In the case of B1, in the test with HAUS5, the binding result is “binds”.

B2: HAUS8 (natural protein, human, UniProt Q9BT25 1-410, looked up)
chain: MADSSGRGAGKPATGPTNSSSAKKKDKRVQGGRVIESRYLQYEKKTTQKAPAGDGSQTRGKMSEGGRKSSLLQKSKADSSGVGKGDLQSTLLEGHGTAPPDLDLSAINDKSIVKKTPQLAKTISKKPESTSFSAPRKKSPDLSEAMEMMESQTLLLTLLSVKMENNLAEFERRAEKNLLIMCKEKEKLQKKAHELKRRLLLSQRKRELADVLDAQIEMLSPFEAVATRFKEQYRTFATALDTTRHELPVRSIHLEGDGQQLLDALQHELVTTQRLLGELDVGDSEENVQVLDLLSELKDVTAKKDLELRRSFAQVLELSAEASKEAALANQEVWEETQGMAPPSRWYFNQDSACRESGGAPKNTPLSEDDNPGASSAPAQATFISPSEDFSSSSQAEVPPSLSRSGRDLS
notes: HAUS8, human; 410; a.a; 1-138 and 340-410 are not seen in the cryo-EM map; also called H8; source: High5 insect cells, co-infected with baculoviruses; purified as part of the augmin octamer (StrepII-Trap, Superose 6)
Turning to B2, the binding result in test [1] is reported as “binds”.

The values are drawn from PMC9481612, “Molecular architecture of the augmin complex” (Nature Communications, 2022).
